This note sets out measurements from paper PMC9129042 (PLoS ONE, 2022).

This assay deals with T1, D614G S2P probe (SARS-CoV-2, WA-1 with D614G, UniProt A0A6H1PJZ3, D614G | K986P | V987P, biotin on the AVI tag (…)).
T1 construct: also called single mutated D614G S2P
Nature of the assay: BLI. The settings on record: both partners purified.

B1: A19-46.1 (antibody, V domains shown)
VH: QVQLVESGGGVVQPGRSLRLSCAASGFTLSSYGMHWVRQAPGKGLEWVAVISYDGSNKYYVDSVKGRFTISRDNSKNTLYLQMNSLRAEDTAVYYCARGWAYWELLPDYYYGMDVWGQGTTVTVSS
VL: QTVVTQEPSFSVSPGGTVTLTCGLSSGSVSTAYFPSWYQQTPGQAPRTLIYGTNTRSSGVPDRFSGSILGNKAALTITGAQADDESDYYCVLYMGRGIVVFGGGTKLTVL
For B1, the binding result was “binds”.
